Laboratory results as given in the supplement of paper PMC7877785.
± gives the uncertainty stated by the source.

Experiment: self-splicing fitness, log relative to wild type (ln ratio); higher = more splicing; Tetrahymena group I intron in knt gene, E. coli kanamycin selection, DiMSum; sequences stand for … in CUCUCU…GGAGGGAAAAGUUAUCAGGCAUGCACCUGGUAGCUAGUCUUUAAACCAAUAGAUUGCAUCGGUUUAAAAGGCAAGACCGUCAAAUUGCGGGAAAGGGGUCAACAGCCGUUCAGUACCAAGUCUCAGGGGAAACUUUGAGAUGGCCUUGCAAAGGGUAUGGUAAUAAGCUGACGGACAUGGUCCUAACCACGCAGCCAAGUCCUAAGUCAACAGAUCUUCUGUUGAUAUGGAUGCAGUUCACAGACUAAAUGUCGGUCGGGGAAGAUGUAUUCUUCUCAUAAGAUAUAGUCGGACCUCUCCUUAAUGGGAGCUAGCGGAUGAAGUGAUGCAACACUGGAGCCGCUGGGAACUAAUUUGUAUGCGAAAGUAUAUUGAUUAGUUUUGGAGUACUCGUGGUCG
Summary of the method: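 The eight P1ex-region nucleotides of an intron in the knt kanamycin-resistance gene on pET-22b(+) were all randomised and the library put into E. coli BL21(DE3). Six replicate transformations were grown overnight at 37°C or 30°C on LB agar with or without 25 μg/mL kanamycin, together with 100 μg/mL carbenicillin, 50 μM IPTG and 0.2% rhamnose. Colonies were pooled and amplicon-sequenced on an Illumina HiSeq 2500. Fitness from DiMSum is the error-weighted combination of wild-type-normalised replicate fold changes, kanamycin over none.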

Row | Sequence | self-splicing fitness (ln) (30 °C) | self-splicing fitness (ln) (37 °C)
1 | ACUAAGCAAUAUUACGAGCG | -0.928 ± 0.084 | 0.115 ± 0.14
2 | UUAAAGCAAUAUUACGCGAC | -2.19 ± 0.15 | -1.72 ± 0.17
3 | AGCCAGCAAUAUUACGAGGU | -3.51 ± 0.23 | -1.93 ± 0.21
4 | GGUCAGCAAUAUUACGUAUC | -0.892 ± 0.078 | -0.138 ± 0.1
5 | GUGUAGCAAUAUUACGAGUG | -2.83 ± 0.43 | –
6 | GACAAGCAAUAUUACGGUGG | -2.01 ± 0.066 | -1.88 ± 0.092
7 | GUCGAGCAAUAUUACGCAGU | -2.71 ± 0.17 | -1.17 ± 0.14
8 | CCCCAGCAAUAUUACGCGGG | -4.19 ± 0.18 | -3.1 ± 0.23
9 | CAACAGCAAUAUUACGCCCA | -0.825 ± 0.097 | -1.04 ± 0.1
10 | UGUGAGCAAUAUUACGGGUC | -4.25 ± 0.33 | -2.41 ± 0.19
11 | CCUCAGCAAUAUUACGCAAU | -3.87 ± 0.2 | -2.01 ± 0.18
12 | UGACAGCAAUAUUACGUUCA | -0.939 ± 0.076 | 0.0202 ± 0.08
13 | CGGUAGCAAUAUUACGGUCU | -0.673 ± 0.068 | -0.251 ± 0.093
14 | AUGAAGCAAUAUUACGACUU | -0.222 ± 0.099 | -0.0268 ± 0.12
15 | GCUUAGCAAUAUUACGGGAA | -0.679 ± 0.12 | 0.196 ± 0.11
16 | GCGUAGCAAUAUUACGUAAG | -3.03 ± 0.23 | -2.66 ± 0.25
17 | AGUGAGCAAUAUUACGGUGU | -4.01 ± 0.29 | -3.73 ± 0.34
18 | UCCGAGCAAUAUUACGCGUA | -1.14 ± 0.098 | -0.936 ± 0.11
19 | UUAUAGCAAUAUUACGUUUA | -2.29 ± 0.16 | -0.505 ± 0.12
20 | CGAAAGCAAUAUUACGGGGA | -3.09 ± 0.31 | -1.85 ± 0.2
21 | CAACAGCAAUAUUACGGACU | -2.52 ± 0.11 | -1.33 ± 0.14
22 | UCCCAGCAAUAUUACGUCUU | -2.99 ± 0.14 | -2.76 ± 0.2
23 | CUGAAGCAAUAUUACGCUCU | -3.29 ± 0.25 | -3.3 ± 0.47
24 | AAGGAGCAAUAUUACGACUA | -1.51 ± 0.17 | -0.705 ± 0.27
25 | UCUAAGCAAUAUUACGUGGG | -3.09 ± 0.19 | -1.92 ± 0.2

Row | Sequence | self-splicing fitness (ln) (30 °C) | self-splicing fitness (ln) (37 °C)
26 | UGGAAGCAAUAUUACGCGGC | -2.11 ± 0.26 | -1.08 ± 0.26
27 | ACUAAGCAAUAUUACGACGC | -0.258 ± 0.11 | -0.0244 ± 0.12
28 | ACGGAGCAAUAUUACGGGUU | -3.25 ± 0.16 | -3.6 ± 0.3
29 | GGAAAGCAAUAUUACGGCCU | -1.71 ± 0.15 | -0.809 ± 0.21
30 | AAAUAGCAAUAUUACGAAGU | -2.55 ± 0.18 | -2.16 ± 0.2
31 | AAGAAGCAAUAUUACGAUGA | -0.962 ± 0.096 | -0.249 ± 0.09
32 | AGUGAGCAAUAUUACGGCCG | -3.46 ± 0.29 | -1.59 ± 0.24
33 | CAGGAGCAAUAUUACGACAA | – | -1.73 ± 0.41
34 | CUGAAGCAAUAUUACGCUUC | -3.51 ± 0.19 | -2.56 ± 0.19
35 | UGCGAGCAAUAUUACGAGUA | -0.846 ± 0.14 | -1.84 ± 0.2
36 | AGGUAGCAAUAUUACGGAAU | -2.678 ± 0.019 | -1.29 ± 0.035
37 | CACCAGCAAUAUUACGCAGA | -3.13 ± 0.13 | -2.57 ± 0.13
38 | GCUUAGCAAUAUUACGACGU | -0.576 ± 0.13 | 0.408 ± 0.16
39 | CCUGAGCAAUAUUACGUGUA | -3.53 ± 0.2 | -2.16 ± 0.2
40 | CAUCAGCAAUAUUACGAACG | 0.463 ± 0.11 | 0.656 ± 0.11
41 | ACUCAGCAAUAUUACGGCUC | -0.59 ± 0.09 | -0.761 ± 0.12
42 | GGCCAGCAAUAUUACGUGUC | -3.2 ± 0.17 | -1.41 ± 0.12
43 | AAACAGCAAUAUUACGUUGC | -3.24 ± 0.11 | -3.26 ± 0.18
44 | AUGCAGCAAUAUUACGCGGA | -2.88 ± 0.11 | -0.559 ± 0.069
45 | GAAGAGCAAUAUUACGCGCC | -3.56 ± 0.47 | -1.43 ± 0.26
46 | UCUGAGCAAUAUUACGCUUU | -3.64 ± 0.23 | -3.19 ± 0.19
47 | GGCGAGCAAUAUUACGAAAU | -2.66 ± 0.25 | -0.868 ± 0.19
48 | UACUAGCAAUAUUACGAUUA | -0.867 ± 0.13 | 0.62 ± 0.16
49 | GUAGAGCAAUAUUACGCGGC | -3.37 ± 0.2 | -2.07 ± 0.18
50 | GAAUAGCAAUAUUACGGCGG | -2.65 ± 0.18 | -0.799 ± 0.13

Row | Sequence | self-splicing fitness (ln) (30 °C) | self-splicing fitness (ln) (37 °C)
51 | CUACAGCAAUAUUACGGAUA | -3.45 ± 0.14 | -3.2 ± 0.16
52 | ACUUAGCAAUAUUACGUUUU | -3.39 ± 0.12 | -1.93 ± 0.1
53 | GGCCAGCAAUAUUACGGUGA | -0.376 ± 0.057 | 0.327 ± 0.076
54 | CACGAGCAAUAUUACGGAAU | -2.85 ± 0.25 | -1.67 ± 0.23
55 | CUAAAGCAAUAUUACGUUCA | -3.24 ± 0.12 | -1.56 ± 0.15
56 | CUACAGCAAUAUUACGGUUU | -3.8 ± 0.16 | -1.31 ± 0.11
57 | GCCUAGCAAUAUUACGGUAC | -2.66 ± 0.15 | -0.822 ± 0.13
58 | AGAGAGCAAUAUUACGAGGC | -2.09 ± 0.25 | –
59 | CACCAGCAAUAUUACGGCGU | -2.28 ± 0.097 | -0.886 ± 0.11
60 | UAUCAGCAAUAUUACGUUGU | -3.84 ± 0.19 | -2.62 ± 0.21
61 | CUUUAGCAAUAUUACGCUCG | -1.68 ± 0.15 | -0.602 ± 0.18
62 | AGGUAGCAAUAUUACGUCUA | -0.666 ± 0.015 | -0.259 ± 0.033
63 | CUCUAGCAAUAUUACGUCUG | -2.34 ± 0.12 | -2.27 ± 0.18
64 | UUGCAGCAAUAUUACGACUG | -2.52 ± 0.19 | -1.72 ± 0.2
65 | UAAUAGCAAUAUUACGGAAA | – | -2.44 ± 0.26
66 | GUGGAGCAAUAUUACGACUA | – | -0.509 ± 0.37
67 | ACAGAGCAAUAUUACGUGUA | -3.11 ± 0.15 | -2.62 ± 0.14
68 | GUAAAGCAAUAUUACGGGUC | -1.78 ± 0.1 | -2.99 ± 0.12
69 | ACGAAGCAAUAUUACGCGGU | -3.65 ± 0.18 | -1.48 ± 0.1
70 | CAAGAGCAAUAUUACGUGCG | -1.17 ± 0.074 | 0.135 ± 0.09
71 | GGGCAGCAAUAUUACGAAAC | -0.715 ± 0.3 | -0.594 ± 0.28
72 | GCCUAGCAAUAUUACGCCGC | -2.48 ± 0.36 | -1.5 ± 0.34
73 | GCGCAGCAAUAUUACGAUAC | -1.4 ± 0.081 | -1.49 ± 0.11
74 | CAUAAGCAAUAUUACGCAUC | – | -3.39 ± 0.43
75 | AGCUAGCAAUAUUACGUCGC | -3.1 ± 0.18 | -2.77 ± 0.36

Row | Sequence | self-splicing fitness (ln) (30 °C) | self-splicing fitness (ln) (37 °C)
76 | GCCCAGCAAUAUUACGAUAU | -1.54 ± 0.077 | -1.31 ± 0.1
77 | UCCUAGCAAUAUUACGAGGG | -2.97 ± 0.25 | -2.7 ± 0.45
78 | CAGGAGCAAUAUUACGUAUA | -4.26 ± 0.34 | -1.62 ± 0.21
79 | UAUUAGCAAUAUUACGCGCC | -1.23 ± 0.4 | –
80 | CGACAGCAAUAUUACGGAGC | -2.83 ± 0.19 | -3.04 ± 0.25
81 | CCGAAGCAAUAUUACGGGGG | -4.9 ± 0.46 | -2.26 ± 0.33
82 | ACCGAGCAAUAUUACGCCGU | -3.49 ± 0.3 | -1.75 ± 0.2
83 | AUUCAGCAAUAUUACGAGAU | -2.7 ± 0.17 | -0.722 ± 0.13
84 | UCACAGCAAUAUUACGGUAC | -3.57 ± 0.24 | -2.6 ± 0.22
85 | GAUAAGCAAUAUUACGAUUC | -1.39 ± 0.14 | -1.41 ± 0.17
86 | GAGGAGCAAUAUUACGCUCU | -2.18 ± 0.42 | -1.73 ± 0.47
87 | GCAUAGCAAUAUUACGCGGA | – | -1.69 ± 0.31
88 | GCGGAGCAAUAUUACGGGCU | -2.38 ± 0.36 | –
89 | ACAGAGCAAUAUUACGGAGC | -4.22 ± 0.34 | -3.15 ± 0.25
90 | UCGCAGCAAUAUUACGGCUA | 0.198 ± 0.091 | 0.317 ± 0.098
91 | GUCUAGCAAUAUUACGGACC | -3.95 ± 0.46 | -0.565 ± 0.24
92 | GAAAAGCAAUAUUACGAUCG | -0.618 ± 0.06 | 0.218 ± 0.08
93 | GCGUAGCAAUAUUACGCUCA | – | -0.161 ± 0.23
94 | UUUUAGCAAUAUUACGAGCA | -1.72 ± 0.15 | -0.97 ± 0.16
95 | CAUAAGCAAUAUUACGUUCG | -0.99 ± 0.079 | 0.184 ± 0.09
96 | AUCUAGCAAUAUUACGGGAU | -2.92 ± 0.2 | -2.28 ± 0.22
97 | CAAGAGCAAUAUUACGGGGC | -1.99 ± 0.14 | -3.02 ± 0.25
98 | CCACAGCAAUAUUACGACAU | -3.702 ± 0.019 | -2.84 ± 0.037
